Molecular target: Importin α2/β1 heterodimer (mouse), tagless recombinant, preformed (mouse, UniProt P52293 1-529; P70168 1-876)
Experiment: […]; 10 mM Tris, 150 mM NaCl, 10% glycerol, 0.75 mM TCEP, pH 8.0; […]
Details: both partners purified

B1: Hendra virus V protein residues 1-405, tagless recombinant (domain or fragment)
chain: MDKLDLVNDGLDIIDFIQKNQKEIQKTYGRSSIQQPSTKDRTRAWEDFLQSTSGEHEQAEGGMPKNDGGTEGRNVEDLSSVTSSDGTIGQRVSNTRAWAEDPDDIQLDPMVTDVVYHDHGGECTGHGPSSSPERGWSYHMSGTHDGNVRAVPDTKVLPNAPKTTVPEEVREIDLIGLEDKFASAGLNPAAVPFVPKNQSTPTEEPPVIPEYYYGSGRRGDLSKSPPRGNVNLDSIKIYTSDDEDENQLEYEDEFAKSSSEVVIDTTPEDNDSINQEEVVGDPSDQGLEHPFPLGKFPEKEETPDVRRKDSLMQDSCKRGGVPKRLPMLSEEFECSGSDDPIIQELEREGSHPGGSLRLREPPQSSGNSRNQPDRQLKTGDAASPGGVQRPGTPMPKSRIMPIKKG
binding result: binds
